Data taken from article PMC7810988, “Inositol pyrophosphates promote the interaction of SPX domains with the coiled-coil motif of PHR transcription factors to regulate plant phosphate homeostasis”.

Target: AtPHR1 MYB-CC (Arabidopsis thaliana, UniProt Q94CL7 222-358)
Assay: GCI; 4 C, 300 mM NaCl; GCI at 4 C: AtPHR1 in 20 mM HEPES pH 7.5, 300 mM NaCl; OsPHR2 in 20 mM HEPES pH 7.9, 200 mM NaCl. EMSA: LI-COR Odyssey kit buffer without optional components, 50 nM oligo, 30 min at room temperature, 5% TBE gel in 0.5x TBE
Settings: protein: recombinant; tags: His6 N-terminal, TEV-cleaved (untagged); chain copies: 2; label: 5'-biotin on strand 1; blunt

Sequence of AtPHR1 MYB-CC (Q94CL7 222-358): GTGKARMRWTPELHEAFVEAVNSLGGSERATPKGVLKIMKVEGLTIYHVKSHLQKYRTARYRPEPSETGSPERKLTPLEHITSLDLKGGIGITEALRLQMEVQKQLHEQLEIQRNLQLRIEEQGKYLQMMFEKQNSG

B1: pAtSPX1 biotin (dsDNA)
DNA 1: CAGAGAAAAAAGGATATTCTAATTAGAAACCTTAAGAATATTCTTTTTAATCCC
DNA 2: GGGATTAAAAAGAATATTCTTAAGGTTTCTAATTAGAATATCCTTTTTTCTCTG
Kd: ~200 nM
